# Results published in the DeepSol protein solubility set.
# Assay: soluble on expression in E. coli; label from the status in PepcDB or PDB records
row,Sequence,soluble on expression in E. coli
1,MAEDYKLIDNEEKHRYEFQIDDKIAKIDYIKSNNGEIYLVHTEVPASLGGRGVGSQLAEKTLADIERQGLRLVPLCPFVAGYIHKHPEWKRIVMRGIHIK,not soluble
2,SAVFSDPQIAMVGETYKEITTRLGTCGCFATGEVSFENQGRSRVMLRNKGILHVYGEQGTGRFLGAEMMGPNAEHLAHLLAWAHQNKMTVSEMLDMPFYHPVIEEGVRTALRDLNAKLHLGPEMIKHCMDCGPGC,not soluble
3,MRVELFNPSIKKIIVKLSQLKGLWIVQLNLSKNRLSEKKFTDLAVLLSMLKAFGVTYLNLHFNNLGQKTGTELVALFKILKDSGISRLSLSANELYQKTGTELATLLTALSDSDIIQLDLSCNWLGQRQDAELIELFKAWSSTPIIDLDLTNNDLGKKSGIVLSEMFRALKVSSISHLGLRNNDLYQRTGAEFSSLLSAIKDSPVTHLDLSDNGLHLMVAAAFETLFDALKDSSVTHLNLCRNGIGHLDMFQMTAMFCSLQCTGVTHLDLGENSLELMTAEELAAIFQVFKDSRLIHLGLNDSYLNNRTTEDLHLIFNALPANIATIKLSLEELTEMSSEQRQTIQRRFPRAEQVILVNNMEGRELNPSLSLGDANVYRRLGFVGVSPLSLAGLASFFVASNNLRFAREVQKLLPDEVTERIVKNILG,not soluble
4,APPSSFSKAKKEAVKIYLDYPTSFYCGCDITWKNKKKGIPELESCGYQVRKQEKRASRIEWEHVVPAWQFGHQRQCWQKGGRKNCTRNDKQFKSMEADLHNLVPAIGEVNGDRSNFRFSQWNGSKGAFYGQCAFKVDFKGRVAEPPAQSRGAIARTYLYMNNEYKFNLSKAQRQLMEAWNKQYPVSTWECTRDERIAKIQGNHNQFVYKAC,soluble
5,MAHHHHHHMDIERLAKNATEITHQSLMLKNIQKEQNNYCKQCGYIYNYDDYMYMYMKRFNLSKWRETSNCLSGRNPYGPFSGGMESSQFDNENCIRCIYCGAIIDTIEMYDHWNGKESYIELNSYREKFIFDKNKKSYWKNKITSLEKNVSLFKEDQNQAYNITYEKCTDCGNDFLHFINIQTRSADEGSTIIYFCPNCKKQTTVNN,not soluble
6,MAHHHHHHMTNFETFQQFYVRDWTPKARPVDAAASVVAPCDGQVLAVNANVESTSLVQVKGLTYGMRSLLQDTPPPLNTDTHRRVAVVLHMRNKDFHHVIAPLSFACEKSIYVPGSLLPTTSAGYHWIPAVLALNERLILQGRSSDKARLPVYMALVGSTLTGRITLYMDKRVRTNYLDPPAYAVHSPYASKPVVARGERLATFNWGSSVVLVMDVPKSCKPLKRPGDVVKAGEALFQF,not soluble
7,MVVFNGLLKIKICEAVSLKPTAWSLRDAVGPRPQTFLLDPYIALNVDDSRIGQTATKQKTNSPAWHDEFVTDVCNGRKIELAVFHDAPIGYDDFVANCTIQFEELLQNGSRHFEDWIDLEPEGKVYVIIDLSGSSG,soluble
8,MGSSHHHHHHSSGLVPRGSHMKRSSPVILVSEDEYGKFDESTNSILVKGKMHHLGISRVIEPGDELIVSGKSFIVSDFSPMYFGRVIRRNTQIISEIDASYIIMRCGLRPGMDILEVGVGSGNMSSYILYALNGKGTLTVVERDEDNLKKAMDNLSEFYDIGNVRTSRSDIADFISDQMYDAVIADIPDPWNHVQKIASMMKPGSVATFYLPNFDQSEKTVLSLSASGMHHLETVELMKRRILVREGATRPASDDLTHTAFITFAIKKSGMVYRI,soluble
9,MSSSNENAGKHSYLRSLISGLSSQGICAYVYASSGYGESSTDIVFTGKAFIAEAGEIVEEMERFRYEERMIISDIDVSRIQTERLINSSFKAAVTFHTHDEKFNQLPFKLRSRQESLPMTRRVLEHHHHHH,soluble
10,MGSDKIHHHHHHMKKATLKDIAEYFGVSISTVSRALSGKPGVSSELREKILEKAREIGYTPNLMALGLKKGNTRTVGVLIPELSANFFADIVSSIEKSLFHLGYRLILCSTDDDPVKEREHLQLLLDQKVEGILSAPVNVKENKDIYNSIINHFKIPVVFFDRLVEGVDSDFVISDNREGMEILVNYLVKHGHKKIGLIHPLRGSFTGEERLKGFLLFKDSIEIREEWIRDGRSSEQGGYESFLRIMTSQERPTAIVIGNNLMTLGVLKAAKELNIKIPEDISLVSFDDAYWNEIFDPPITCVRQDPQQIGLIAATILLDRMKNRKKPSPRMQVVLKVKFVERSSVRTIKTLKDFS,not soluble
11,HMSNPLGELVKALEKLSFKPSDVRIYSLLLERGGMRVSEIARELDLSARFVRDRLKVLLKRGFVRREIVEKGWVGYIYSAEKPEKVLKEFKSSILGEIERIEKMFTDGS,soluble
12,TDIVLWDKPGEKVLLLGNQAIVRGALEGNIGVYAAYPGTPSSEITDTMAMVAKKAGVYMEYSTNEKVAFETALSASWAGLRAMTAMKHVGLNVAMDSFMTVSYMGINGGLIVVVADDPSMWSSQNEQDTRAIAKFANIPVLEPSSVQEAKDMVKYAFEISEKYGQMVILRTTTRSSHMRGDVVLGELPQEIKEGKRKFGNFKKNPEKYVDIPAFQRPKHPWLLETIEKFREEFNTSPFNWIEGPEDAKVGIIAPGLSYAYVKEALAWLGIDNVKILKLGTPFPVPYGLLEKFFNGLERVLIVEELEPVVEEQVKVWAFDNNINIEIHGKDLVPRVYEMTTRRAVEAVAKFLGVETPINFQEIDEKYKKVQEMVPPRPPSLCPACPHRNTFFAIRKAATPRAIFPSDIGCYTLGVLPPLKTVDTTIAMGGSIGVAHGLSIALNGALGEEQRKTGKEKKIIVATIGDSTFFHTGLPALANAIYNRSNVLIVVMDNMVTAMTGDQPNPGTGETPHGPGKRILIEEVARAMGADFVAVVDPYDIKETYETIKKALEVEGVSVVVSRRACALYRIGQLRREGKQWPIYQVNEEKCTGCKICINAYGCPAIYWDAEK,not soluble
13,MAVAPTAREENVYMAKLAEQAERYEEMVEFMEKVSNSLGSEELTVEERNLLSVAYKNVIGARRASWRIISSIEQKEESRGNEEHVNSIREYRSKIENELSKICDGILKLLDAKLIPSAASGDSKVFYLKMKGDYHRYLAEFKTGAERKEAAESTLTAYKAAQDIATTELAPTHPIRLGLALNFSVFYYEILNSPDRACNLAKQAFDEAIAELDTLGEESYKDSTLIMQLLRDNLTLWTSDMQDDGADEIKEDPKPDEAKN,soluble
14,MSRVPEPSVFLVVDEAKRKARERGVGLIDLSIGSTDLPPPEAPLKALAEALNDPTTYGYCLKSCTLPFLEEAARWYEGRYGVGLDPRREALALIGSQEGLAHLLLALTEPEDLLLLPEVAYPSYFGAARVASLRTFLIPLREDGLADLKAVPEGVWREAKVLLLNYPNNPTGAVADWGYFEEALGLARKHGLWLIHDNPYVDQVYEGEAPSPLALPGAKERVVELFSLSKSYNLAGFRLGFALGSEEALARLERVKGVIDFNQYAGVLRMGVEALKTPKEVVRGYARVYRERALGMAEALKGVLSLLPPRATMYLWGRLPEGVDDLEFGLRLVERGVALAPGRGFGPGGKGFVRIALVRPLEELLEAAKRIREALD,soluble
15,SFARGLKRKCVGHEEDVEGALAGLKTVSSYSLQRQSLLDMSLVKLQLCHMLVEPNLCRSVLIANTVRQIQEEMTQDGTWRTVAPQAAERAPLDRLVSTEILCRAAWGQEGAHPAPGLGDGHTQGPVSDLCPVTSAQAPRHLQSSAWEMDGPRENRGSFHKSLDQIFETLETKNPSCMEELFSDVDSPYYDLDTVLTGMMGGARPGPCEGLEGLAPATPGPSSSCKSDLGELDHVVEILVET,not soluble
16,MELAVHDATEDGAGYATAASSWVVVEPEFVVDVTDIRSFVQCPRLYYLNKLSGLPLKYPVTKGTIVHEVFGDLLRGRDLEASVAQRVDEAGLELGLLGRSRAEVEADVRDNASAIEGWLQQGRLTDEDEWRSEYTLVSERFGIKGRCDAIRRGMPVELKTGKNTNREPRFHDKVQAACYALMLDEHGVPADTGTLLYTKNAAVDRSEASGDLSPAKEFSIGRGFLEFVVRERNHLAALEASDGPPTGYEADAKCDYCFEQDTCMVVSGRLDQESKAGRIGDPVPAEERAYFDELYDAIEAERGAIHDEYRKLWEQSPDERAADDRAVVGLSPAEQTELPDGRWRLTATRPGSAASKIREGDRVLASDGDPVAGRAEMARVERLDADRVEVTTDEPVSLCRLDVYPSELSVDRMLTALHDAVLKSDQRRTDLLFDRASPRFEGGDHDLIPNNDAQNAAVNRALNAEDFALVHGPPGTGKTYTIATLVQAFVARGDRVLVSAFTNRAVDNALDALRQQGHEDIVRVGTETGVRADMQDLRLDRSGDPGERAAALRSAPVVAATTATCGSRILRELEFDVVLVDEASQLTEPDTLAAINRGARFVLVGDHEQLPPVVRSGGRLSKSLFERLHETYPEASVMLDQQYRMSQRIQAFSSREFYDGQLRPASSEVAGQRLTDVGVDPGGAVHGGVTFYDVPGTDDAHVDPAEADRVADVVTAYVDAGLDPGEIGVIAPFRAQVAEIGRRTPAGVAVDTVDRFQGSSKEVIVVSFVARGTLEGPIFEDHRRVNVALSRAKKSLVLVGDERALRSEPLYDRMIDWADMELEHHHHHH,not soluble
17,MGSDKIHHHHHHYATPEEYYKATGKKITEYHESPMLTKLVEEGKLPPVEQRLPEEPLVVQPVEKVGQFGGTWRRVWKGPSDRWGISKLIEVKLAFWDKEGGKLVPGLAKSWEVLENGRVYIFHLRKGVKWSDGAPYTAHDIVFWVNDIVGNDDITPSKPDWYNIGVKVEALDDYTVKFEFSKPYGLFLLKVPYGGFTGAPAHYLKQFHPKYTPMEEIEKKMVEGVHNTWVDLFNDKNDFLENTELPTLSPWKPITDPTEQFYILERNPYFWAVDIEGNQLPYIDYVRHEYVKNDEVILLKAISGEIDMQWRHIGGLGAGAGNFTLLMENSQSGGYRVLKWIAANGSASRISLNYAHSDEVLRKVFNDVRFRQALSLAINREEINEILFNGLAEPRQASLVSGSPYFDPEWEKAYAEYDPDRANKLLDEMGLKWDDKHEYRLLPDGRPLRFTITVTGQFHVDVWTMVKEYWKQIGVWVEIENLERSLFYERADAGDFDAMVWNMDRAAQPLSSPMVIFPGSENIADFWYIGWSGWISYYIDKNIRGVEPEEVPEGPEPPEVVYRLVDLYYQIASTPDPDKIKELMAEATKIHRENLWMIGTVGEDLSPAIAKNNFRNVPEFLVTDDVLRTPLNAMPMQFFIEQK,not soluble
18,MDQNIPCQFFSFENTALAVRHRKGHCFPGLVWLSGYQSDMLGSKAMLVDNFAQKNDLSCLRFDYSGHGESEGDFFQGTISRWVKESLAIFETYCEGPQILIGSSMGGWIALKLAMMLAQKNKRLAGMVLVAPAPDFTQTLVEPKLGLEEWKILEEKGYIERPAVGDEEPMPFTKGLIEDGRDNCVMKGCLDIGCPIHILQGMEDDKIPYQHTLTLMNHLPLHDVTLTLVRDADHRFSRPQDLECLETVLSILIDRINAG,not soluble
19,MHWRLTVLFFASAQLSEGCLPMVPPEEPVTPVPVCPAGWFQFQRATGLWCYIFATPGAGWTTPQAACQANYGANLNGFESAAERTQFIQDMLASNLAPYTFVHIGAMRQCAPCTVNDPFVWLNGVSNDNTFANDYDSLYDLTGDCLSMDLGNNGQYNDITCDAETAYSCGKPAA,not soluble
20,MVSRRVQALLDQLRAQGIQDEQVLNALAAVPREKFVDEAFEQKAWDNIALPIGQGQTISQPYMVARMTELLELTPQSRVLEIGTGSGYQTAILAHLVQHVCSVERIKGLQWQARRRLKNLDLHNVSTRHGDGWQGWQARAPFDAIIVTAAPPEIPTALMTQLDEGGILVLPVGEEHQYLKRVRRRGGEFIIDTVEAVRFVPLVKGELA,soluble
21,MKTYNIPVEATLEVIGGKWKVVILCHLKKDKKRTCELKQLMSGITQKMLTQQLRELEEDGVIERKVYNQVPPKVEYSLTDYGHSLDSILDTLCNWGENHLEKNGNTSMLITAAE,not soluble
